Test results published in US20140286963A1.

Assays:
[1] = biological target: murine BACE1 ECD (amino acids 1-457) (murine) (UniProt P56818); assay: SPR (BIAcore-3000), second unlabelled row under Mouse, IgG captured by anti-human Fc antibody, pH 7.0
[2] = biological target: murine BACE1 ECD (amino acids 1-457) (murine) (UniProt P56818); assay: SPR (BIAcore-3000), IgG captured by anti-human Fc antibody, BACE1 ECD injected, 25 C, pH 7.0

Chain of murine BACE1 ECD (amino acids 1-457) (murine) (P56818 22-457 limits assumed, form in doubt): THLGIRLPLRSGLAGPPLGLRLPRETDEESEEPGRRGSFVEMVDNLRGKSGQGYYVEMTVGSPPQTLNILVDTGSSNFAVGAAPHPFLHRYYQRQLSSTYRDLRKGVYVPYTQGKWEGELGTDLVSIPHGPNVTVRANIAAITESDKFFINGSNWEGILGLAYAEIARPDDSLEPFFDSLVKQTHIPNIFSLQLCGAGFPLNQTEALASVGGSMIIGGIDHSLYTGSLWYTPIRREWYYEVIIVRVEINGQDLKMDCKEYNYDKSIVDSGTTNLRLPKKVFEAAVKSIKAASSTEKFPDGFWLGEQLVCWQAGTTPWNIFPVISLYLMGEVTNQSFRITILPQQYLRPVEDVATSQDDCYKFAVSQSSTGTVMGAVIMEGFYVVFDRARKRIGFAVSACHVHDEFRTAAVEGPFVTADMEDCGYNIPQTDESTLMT

Kd [1]: 1.4 nM | koff [1]: 0.000141 s⁻¹ | kon [1]: 101000 M⁻¹ s⁻¹ | Kd [2]: 2.1 nM | koff [2]: 0.00029 s⁻¹ | kon [2]: 140000 M⁻¹ s⁻¹
B1: YW412.8.31 anti-BACE1 human IgG (antibody, V domains shown)
VH: EVQLVESGGGLVQPGGSLRLSCAASGFTFLGYGIHWVRQAPGKGLEWVGWISPAGGSTDYADSVKGRFTISADTSKNTAYLQMNSLRAEDTAVYYCARGPFSPWVMDYWGQGTLVTVSS
VL: DIQMTQSPSSLSASVGDRVTITCRASQDVSTAVAWYQQKPGKAPKLLIYSASFLYSGVPSRFSGSGSGTDFTLTISSLQPEDFATYYCQQFPTYLPTFGQGTKVEIK
